From article PMC7672080

Legend:
[1] = biological target: mCherry-tagged neuroligin-1 (UniProt Q99K10)
[2] = biological target: mCherry-tagged neuroligin-1 (UniProt Q99K10); remark: listed apart in the source

Sequence of UniProt Q99K10 (Q99K10 46-843): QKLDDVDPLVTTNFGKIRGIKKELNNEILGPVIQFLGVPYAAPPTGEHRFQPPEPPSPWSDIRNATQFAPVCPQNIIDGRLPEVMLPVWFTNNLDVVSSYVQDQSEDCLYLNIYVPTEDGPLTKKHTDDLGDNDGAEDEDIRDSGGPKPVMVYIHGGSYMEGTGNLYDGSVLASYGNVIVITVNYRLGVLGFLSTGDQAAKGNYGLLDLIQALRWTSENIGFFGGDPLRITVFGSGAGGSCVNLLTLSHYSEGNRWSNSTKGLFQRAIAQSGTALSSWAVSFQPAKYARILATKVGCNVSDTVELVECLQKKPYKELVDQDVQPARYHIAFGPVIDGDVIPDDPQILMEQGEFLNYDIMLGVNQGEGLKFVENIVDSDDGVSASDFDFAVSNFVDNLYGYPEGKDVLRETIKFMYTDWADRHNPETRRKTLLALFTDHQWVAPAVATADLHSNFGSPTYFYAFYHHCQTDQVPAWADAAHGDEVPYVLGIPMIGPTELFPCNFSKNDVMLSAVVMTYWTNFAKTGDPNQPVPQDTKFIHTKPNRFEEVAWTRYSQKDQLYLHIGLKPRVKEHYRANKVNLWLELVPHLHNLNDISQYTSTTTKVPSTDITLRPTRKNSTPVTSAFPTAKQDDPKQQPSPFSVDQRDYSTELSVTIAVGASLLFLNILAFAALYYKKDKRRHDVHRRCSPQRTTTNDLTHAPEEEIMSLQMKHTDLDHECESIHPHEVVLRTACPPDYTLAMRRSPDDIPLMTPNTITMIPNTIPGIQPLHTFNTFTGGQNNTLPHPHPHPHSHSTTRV

diffusion coefficient of single GFP-Nrx1β molecules inside the contact with a cell expressing Nlg1-mCherry (uPAINT single particle tracking at 50 Hz; Dout = 0.3 µm^2/s outside the contact) [1]: 0.04 µm^2/s
enrichment of GFP-Nrx1β at cell–cell contacts between co-cultured COS-7 cells expressing GFP-Nrx1β and cells expressing Nlg1-mCherry (fluorescence microscopy) [2]: 3.9
Substance: GFP-tagged neurexin-1β (from UniProt Q63373 47-468) (receptor)
